Laboratory results taken from patent publication US20150299281A1 (ZEALAND PHARMA A S, published 2015).
Square brackets hold non-standard residues; d marks the D form. Aib = CC(C)(N)C(=O)O

T1: human GIP receptor (human, UniProt P48546 22-466)
T1 sequence (looked up): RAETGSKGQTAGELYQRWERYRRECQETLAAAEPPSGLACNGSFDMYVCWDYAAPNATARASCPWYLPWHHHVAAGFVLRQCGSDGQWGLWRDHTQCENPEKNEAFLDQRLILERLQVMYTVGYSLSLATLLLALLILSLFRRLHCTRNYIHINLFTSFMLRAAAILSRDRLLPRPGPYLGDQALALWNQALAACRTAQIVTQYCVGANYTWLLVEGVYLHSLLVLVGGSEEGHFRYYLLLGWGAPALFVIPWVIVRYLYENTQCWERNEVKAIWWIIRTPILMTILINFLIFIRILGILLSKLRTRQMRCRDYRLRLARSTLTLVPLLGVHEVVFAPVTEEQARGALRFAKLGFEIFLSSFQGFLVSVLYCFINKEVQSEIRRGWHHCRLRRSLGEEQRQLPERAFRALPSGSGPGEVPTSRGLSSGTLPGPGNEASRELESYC


Assays:
[1] = biological target: T1, human GIP receptor; experiment: cell-based or functional assay
[2] = biological target: human GLP-1 receptor (human, UniProt P43220 24-463); experiment: cell-based or functional assay

EC50, cAMP induction in HEK293 cells expressing human GIP R [1]	EC50, cAMP induction in HEK293 cells expressing human GLP-1 R [2]	Binder
0.14 nM	0.032 nM	H-Y[Aib]EGTFTSDYSIYSDKKAQRAFVNWLLA[Aib]K-NH2 (SMILES CC[C@H](C)[C@H](NC(=O)[C@H](CO)NC(=O)[C@H](Cc1ccc(O)cc1)NC(=O)[C@H](CC(=O)O)NC(=O)[C@H](CO)NC(=O)[C@@H](NC(=O)[C@H](Cc1ccccc1)NC(=O)[C@@H](NC(=O)CNC(=O)[C@H](CCC(=O)O)NC(=O)C(C)(C)NC(=O)[C@@H](N)Cc1ccc(O)cc1)[C@@H](C)O)[C@@H](C)O)C(=O)N[C@@H](Cc1ccc(O)cc1)C(=O)N[C@@H](CO)C(=O)N[C@@H](CC(=O)O)C(=O)N[C@@H](CCCCN)C(=O)N[C@@H](CCCCN)C(=O)N[C@@H](C)C(=O)N[C@@H](CCC(N)=O)C(=O)N[C@@H](CCCNC(=N)N)C(=O)N[C@@H](C)C(=O)N[C@@H](Cc1ccccc1)C(=O)N[C@H](C(=O)N[C@@H](CC(N)=O)C(=O)N[C@@H](Cc1c[nH]c2ccccc12)C(=O)N[C@@H](CC(C)C)C(=O)N[C@@H](CC(C)C)C(=O)N[C@@H](C)C(=O)NC(C)(C)C(=O)N[C@@H](CCCCN)C(N)=O)C(C)C) [Compound 13]
0.036 nM	0.0087 nM	H-Y[Aib]EGTFTSDYSIYLEKKAQRAFVNWLLA[Aib]K-NH2 (SMILES CC[C@H](C)[C@H](NC(=O)[C@H](CO)NC(=O)[C@H](Cc1ccc(O)cc1)NC(=O)[C@H](CC(=O)O)NC(=O)[C@H](CO)NC(=O)[C@@H](NC(=O)[C@H](Cc1ccccc1)NC(=O)[C@@H](NC(=O)CNC(=O)[C@H](CCC(=O)O)NC(=O)C(C)(C)NC(=O)[C@@H](N)Cc1ccc(O)cc1)[C@@H](C)O)[C@@H](C)O)C(=O)N[C@@H](Cc1ccc(O)cc1)C(=O)N[C@@H](CC(C)C)C(=O)N[C@@H](CCC(=O)O)C(=O)N[C@@H](CCCCN)C(=O)N[C@@H](CCCCN)C(=O)N[C@@H](C)C(=O)N[C@@H](CCC(N)=O)C(=O)N[C@@H](CCCNC(=N)N)C(=O)N[C@@H](C)C(=O)N[C@@H](Cc1ccccc1)C(=O)N[C@H](C(=O)N[C@@H](CC(N)=O)C(=O)N[C@@H](Cc1c[nH]c2ccccc12)C(=O)N[C@@H](CC(C)C)C(=O)N[C@@H](CC(C)C)C(=O)N[C@@H](C)C(=O)NC(C)(C)C(=O)N[C@@H](CCCCN)C(N)=O)C(C)C) [Compound 14]
0.06 nM	0.01 nM	H-Y[Aib]EGTFTSDYSIALEKKAQRAFVNWLLA[Aib]K-NH2 (SMILES CC[C@H](C)[C@H](NC(=O)[C@H](CO)NC(=O)[C@H](Cc1ccc(O)cc1)NC(=O)[C@H](CC(=O)O)NC(=O)[C@H](CO)NC(=O)[C@@H](NC(=O)[C@H](Cc1ccccc1)NC(=O)[C@@H](NC(=O)CNC(=O)[C@H](CCC(=O)O)NC(=O)C(C)(C)NC(=O)[C@@H](N)Cc1ccc(O)cc1)[C@@H](C)O)[C@@H](C)O)C(=O)N[C@@H](C)C(=O)N[C@@H](CC(C)C)C(=O)N[C@@H](CCC(=O)O)C(=O)N[C@@H](CCCCN)C(=O)N[C@@H](CCCCN)C(=O)N[C@@H](C)C(=O)N[C@@H](CCC(N)=O)C(=O)N[C@@H](CCCNC(=N)N)C(=O)N[C@@H](C)C(=O)N[C@@H](Cc1ccccc1)C(=O)N[C@H](C(=O)N[C@@H](CC(N)=O)C(=O)N[C@@H](Cc1c[nH]c2ccccc12)C(=O)N[C@@H](CC(C)C)C(=O)N[C@@H](CC(C)C)C(=O)N[C@@H](C)C(=O)NC(C)(C)C(=O)N[C@@H](CCCCN)C(N)=O)C(C)C) [Compound 15]
0.1 nM	0.029 nM	H-Y[Aib]EGTFSSDYSIYLDKKAQRAFVNWLLA[Aib]K-NH2 (SMILES CC[C@H](C)[C@H](NC(=O)[C@H](CO)NC(=O)[C@H](Cc1ccc(O)cc1)NC(=O)[C@H](CC(=O)O)NC(=O)[C@H](CO)NC(=O)[C@H](CO)NC(=O)[C@H](Cc1ccccc1)NC(=O)[C@@H](NC(=O)CNC(=O)[C@H](CCC(=O)O)NC(=O)C(C)(C)NC(=O)[C@@H](N)Cc1ccc(O)cc1)[C@@H](C)O)C(=O)N[C@@H](Cc1ccc(O)cc1)C(=O)N[C@@H](CC(C)C)C(=O)N[C@@H](CC(=O)O)C(=O)N[C@@H](CCCCN)C(=O)N[C@@H](CCCCN)C(=O)N[C@@H](C)C(=O)N[C@@H](CCC(N)=O)C(=O)N[C@@H](CCCNC(=N)N)C(=O)N[C@@H](C)C(=O)N[C@@H](Cc1ccccc1)C(=O)N[C@H](C(=O)N[C@@H](CC(N)=O)C(=O)N[C@@H](Cc1c[nH]c2ccccc12)C(=O)N[C@@H](CC(C)C)C(=O)N[C@@H](CC(C)C)C(=O)N[C@@H](C)C(=O)NC(C)(C)C(=O)N[C@@H](CCCCN)C(N)=O)C(C)C) [Compound 8]
0.05 nM	0.01 nM	H-Y[Aib]EGTFTSDYSIALDKKAQRAFVNWLLA[Aib]K-NH2 (SMILES CC[C@H](C)[C@H](NC(=O)[C@H](CO)NC(=O)[C@H](Cc1ccc(O)cc1)NC(=O)[C@H](CC(=O)O)NC(=O)[C@H](CO)NC(=O)[C@@H](NC(=O)[C@H](Cc1ccccc1)NC(=O)[C@@H](NC(=O)CNC(=O)[C@H](CCC(=O)O)NC(=O)C(C)(C)NC(=O)[C@@H](N)Cc1ccc(O)cc1)[C@@H](C)O)[C@@H](C)O)C(=O)N[C@@H](C)C(=O)N[C@@H](CC(C)C)C(=O)N[C@@H](CC(=O)O)C(=O)N[C@@H](CCCCN)C(=O)N[C@@H](CCCCN)C(=O)N[C@@H](C)C(=O)N[C@@H](CCC(N)=O)C(=O)N[C@@H](CCCNC(=N)N)C(=O)N[C@@H](C)C(=O)N[C@@H](Cc1ccccc1)C(=O)N[C@H](C(=O)N[C@@H](CC(N)=O)C(=O)N[C@@H](Cc1c[nH]c2ccccc12)C(=O)N[C@@H](CC(C)C)C(=O)N[C@@H](CC(C)C)C(=O)N[C@@H](C)C(=O)NC(C)(C)C(=O)N[C@@H](CCCCN)C(N)=O)C(C)C) [Compound 12]
0.76 nM	0.47 nM	H-Y[Aib]EGTFTSDYLIYLDKKAQRAFVNWLLA[Aib]K-NH2 (SMILES CC[C@H](C)[C@H](NC(=O)[C@H](CC(C)C)NC(=O)[C@H](Cc1ccc(O)cc1)NC(=O)[C@H](CC(=O)O)NC(=O)[C@H](CO)NC(=O)[C@@H](NC(=O)[C@H](Cc1ccccc1)NC(=O)[C@@H](NC(=O)CNC(=O)[C@H](CCC(=O)O)NC(=O)C(C)(C)NC(=O)[C@@H](N)Cc1ccc(O)cc1)[C@@H](C)O)[C@@H](C)O)C(=O)N[C@@H](Cc1ccc(O)cc1)C(=O)N[C@@H](CC(C)C)C(=O)N[C@@H](CC(=O)O)C(=O)N[C@@H](CCCCN)C(=O)N[C@@H](CCCCN)C(=O)N[C@@H](C)C(=O)N[C@@H](CCC(N)=O)C(=O)N[C@@H](CCCNC(=N)N)C(=O)N[C@@H](C)C(=O)N[C@@H](Cc1ccccc1)C(=O)N[C@H](C(=O)N[C@@H](CC(N)=O)C(=O)N[C@@H](Cc1c[nH]c2ccccc12)C(=O)N[C@@H](CC(C)C)C(=O)N[C@@H](CC(C)C)C(=O)N[C@@H](C)C(=O)NC(C)(C)C(=O)N[C@@H](CCCCN)C(N)=O)C(C)C) [Compound 11]
